{
  "source": "paper PMC3854711",
  "about": "“Handling Uncertainty in Dynamic Models: The Pentose Phosphate Pathway in Trypanosoma brucei” (PLoS Computational Biology, 2013)",
  "proteins": {"B1": {"name": "T. brucei ribokinase (Trypanosoma brucei brucei TREU927) (protein)", "chain": "MSAAGVKSGNGCIADTPIVVVGACFVDYVAYVDHLPQVGESLRCRSFSKGFGGKGSNQAVCAGRLGASVSMVGAVGTDGDGADYIANFQRNGVQVSNVYRMENTSTGLAMIFVDSTTSHNEIVFSPNATGALTVDYLRKQSDNYNNFFGPKCRYIILQNEIPVETTLDVLKEAHTRGIYTVFNAAPAPSADEVAVVKPFLSYVSLFCVNEVEASMITGIDVKDTQSAILATEEMQKLGAHSVVTTLGGNGYVIGEKGKPPRHLPSITVKAVDSTGAGDCFVGAMVFYLSMGKSLEESCKRANMIAAISVQRPGTQSSYPTLDELPAEVKECKI", "notes": "N-terminal His-tag from pET28a(+), expressed in E. coli BL21(DE3), Ni chelate purified"}},
  "key": {"[1]": {"substrate": "Nc1ncnc2c1ncn2[C@@H]1O[C@H](COP(=O)(O)OP(=O)(O)OP(=O)(O)O)[C@@H](O)[C@H]1O", "assay": "coupled spectrophotometric assay (PK/LDH, NADH)", "format": "biochemical, Trypanosoma brucei", "settings": "ribose co-substrate (5 mM), 10 mM MgCl2, pH 7, 25°C, ribose 5-phosphate production direction", "excerpt": "coupled spectrophotometric assay (PK/LDH, NADH) on T. brucei ribokinase | enzyme kinetics of heterologously expressed T. brucei ribokinase were characterized"}, "[2]": {"substrate": "Nc1ncnc2c1ncn2[C@@H]1O[C@H](COP(=O)(O)OP(=O)(O)O)[C@@H](O)[C@H]1O", "assay": "coupled spectrophotometric assay (HXK/G6PDH, NADP)", "format": "biochemical, Trypanosoma brucei", "settings": "ribose 5-phosphate co-substrate (5 mM), 10 mM MgCl2, pH 7, 25°C, reverse direction, ribose production", "excerpt": "coupled spectrophotometric assay (HXK/G6PDH, NADP) on T. brucei ribokinase | the enzyme could indeed work in the ribose production direction"}},
  "data": [
    {"protein": "B1", "values": [
      {"measurement": "Km", "setting": "[1]", "result": 240, "unit": "µM"},
      {"measurement": "Km", "setting": "[2]", "result": 250, "unit": "µM"}
    ]}
  ]
}
